According to patent publication US20220242939A1 (BIOARCTIC, published 2022):
Non-standard residues stand in square brackets, D forms with d. No end group written: not given here. Ahx = NCCCCCC(=O)O

Key:
[1] = biological target: T1, recombinant C-terminal ApoE fragment G200-HIS (ApoE-G200-H299-10xHIS) (human, UniProt P02649 218-317); experiment: BLI (Octet RED384), G200-HIS captured on anti-HIS biosensor, antibody as analyte, 1:2 bivalent analyte fit
T1 construct: also called G200-HIS fragment
Experimental: Selectivity evaluation and KD determination of recombinant antibodies by bio-layer interferometry: Binding interactions between the N-terminal neo-epitope peptide G200 (SEQ ID NO:50) conjugated to BSA (ligand) and the recombinant antibodies produced in Example 11 (analyte) were evaluated using an Octet RED384 instrument (ForteBio). All analyzed proteins were diluted in 1×Kinetics Buffer (ForteBio).
To analyze the antibody-target interaction and to determine the binding affinity of the recombinant antibodies for recombinant C-terminal ApoE fragment G200-HIS (SEQ ID NO:48), anti-HIS capture biosensors (HIS1K) were used. In the first step (loading step), HIS-tagged recombinant C-terminal ApoE fragment was captured onto the surface of the biosensor. Next, a concentration gradient of pure antibodies was prepared ranging from 150 nM to 2.5 nM in 2-fold serial dilutions. Subsequently, the HIS1K biosensors with ligand were dipped in wells containing diluted antibodies, and the association phase was monitored for 600 s. For monitoring the dissociation phase, the HIS1K biosensors with ligand were moved to a well containing 1× Kinetics Buffer and the dissociation was monitored for 1000 s. For evaluation of the kinetic experiments, the Octet Data Analysis software was used. All values collected from interaction analysis were blank subtracted, and a 1:2 binding kinetics global fit model (bivalent analyte) was used for the evaluation.
Selectivity evaluation and KD determination of recombinant antibodies by bio-layer interferometry: Binding interactions between the recombinant G200 C-terminal ApoE fragment (ligand) and recombinant antibodies (analyte) were evaluated by using an Octet RED384 instrument (ForteBio).

[2] = biological target: T2, A199 N-terminal neo-epitope peptide AGQPLQ-Acp-C (SEQ ID NO:51) conjugated to BSA (human, not fully specified (residue 8); printed as AGQPLQ-Acp-C; also: C-terminal Cys conjugated to BSA carrier); experiment: direct ELISA, target coated at 1 ug/ml, antibody in 3-fold dilutions from 500 ng/ml, OD 450 nm
T2 construct: BSA carrier; also called A199-BSA peptide
T2 peptide: AGQPLQ[Ahx]C
Experimental: (§1) Selectivity evaluation of recombinant antibodies by direct ELISA: The direct ELISA described below was used to evaluate the binding selectivity of the recombinant antibodies produced in Example 11.
(§2) The screening was performed according to standard ELISA protocols. Briefly, 1 μg/ml solutions of BSA-conjugated neo-epitope peptides, recombinant C-terminal ApoE fragment, negative control peptide and full-length ApoE were prepared by dilution in PBS. 50 μl/well were added to an ELISA half-area 96 well microtiter plate, the plate was sealed with adhesive sealer and incubated over night at 4° C. After discarding the solution, the plates were blocked with 150 μl/well of protein-free blocking solution (Pierce) for 1 h at room temperature with shake (900 rpm). The plates were washed four times with washing buffer containing 0.28 mM NaH₂PO₄, 2.5 mM Na₂HPO₄, 150 mM NaCl, 0.1% TWEEN®-20 and 0.0075% Kathon CG. Generated recombinant antibodies of interest were serially diluted 3-fold with a starting dilution at 0.5 μg/ml (mixed 1:1 with dilution buffer: PBS with 0.1% BSA and 0.05% TWEEN®-20). An anti-ApoE C-terminal antibody was used as a reference antibody (ApoE E-8 mouse monoclonal, cat. no. sc-393302; Santa Cruz Biotechnology). 50 μl/well were added into the ELISA plates and incubated for 2 h at room temperature with shake (900 rpm). The plates were washed four times as described previously. […] After another wash (as described previously), 50 μl/well of K-Blue® aqueous substrate (Neogen) were added, and the reaction was stopped after 5-15 min with 50 μl/well of 0.5 M […]. The optical density at 450 nm was read using an ELISA reader (Tecan).

[3] = biological target: T3, His-tagged recombinant full-length ApoE4, 10xHIS-ApoE4(1-299) (human, UniProt P02649 19-317); experiment: as above
T3 construct: also called ApoE4-FL-HIS
T3 sequence (P02649 other isoform, or with tags, fused parts or gaps limits assumed): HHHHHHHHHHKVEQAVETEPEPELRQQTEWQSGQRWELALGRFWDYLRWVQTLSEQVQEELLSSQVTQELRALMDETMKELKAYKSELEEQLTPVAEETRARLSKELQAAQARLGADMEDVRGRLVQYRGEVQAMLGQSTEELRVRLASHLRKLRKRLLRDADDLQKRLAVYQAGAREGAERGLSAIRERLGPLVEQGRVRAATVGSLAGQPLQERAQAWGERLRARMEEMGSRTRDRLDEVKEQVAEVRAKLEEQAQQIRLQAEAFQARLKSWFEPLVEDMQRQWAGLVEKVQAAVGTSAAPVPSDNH
Experimental: as §1, §2

[4] = biological target: T4, recombinant full-length ApoE4 (aa 1-299; SEQ ID NO:45; Abcam cat. no. ab50243) (human, UniProt P02649 19-317); experiment: direct ELISA, second protocol; proteins coated at 0.1 uM, BSA peptides at 1 ug/ml; antibody in 3-fold dilutions from 3000 ng/ml; blank reduced OD 450 nm
T4 construct: Bought protein; also called recombinant ApoE4 full-length protein
T4 sequence (P02649 19-317 C130R limits assumed): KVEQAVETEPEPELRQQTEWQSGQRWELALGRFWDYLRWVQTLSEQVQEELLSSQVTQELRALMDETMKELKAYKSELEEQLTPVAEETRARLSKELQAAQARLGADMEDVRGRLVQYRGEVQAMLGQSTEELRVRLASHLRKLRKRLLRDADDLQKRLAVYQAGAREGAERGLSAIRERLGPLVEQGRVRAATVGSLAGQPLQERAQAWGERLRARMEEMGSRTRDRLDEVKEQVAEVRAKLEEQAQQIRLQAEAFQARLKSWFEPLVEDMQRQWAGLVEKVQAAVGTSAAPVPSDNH
Experimental: as §2, with “Generated recombinant antibodies of interest were serially diluted 3-fold with a starting dilution at 0.5 μg/ml (mixed 1:1 with dilution buffer: PBS with 0.1% BSA and 0.05% TWEEN®-20).” left out, “(Tecan). The optical density was plotted against the antibody concentration to generate concentration-response curves (FIG. 16).” for “(Tecan).”
(§3) These were added in the same molarity (0.1 μM) to provide an equal number of molecules available for binding by the antibodies (BSA-coupled peptides were coated at 1 μg/ml as before).

[5] = biological target: T1, recombinant C-terminal ApoE fragment …; experiment: SPR (Biacore 8K), G200-HIS amine-coupled on CM5, antibody as analyte, bivalent analyte fit (KD1)
[6] = biological target: T2, A199 N-terminal neo-epitope peptide …; experiment: direct ELISA, second protocol; proteins coated at 0.1 uM, BSA peptides at 1 ug/ml; antibody in 3-fold dilutions from 3000 ng/ml; blank reduced OD 450 nm
Experimental: as §2, with “Generated recombinant antibodies of interest were serially diluted 3-fold with a starting dilution at 0.5 μg/ml (mixed 1:1 with dilution buffer: PBS with 0.1% BSA and 0.05% TWEEN®-20).” left out, “(Tecan). The optical density was plotted against the antibody concentration to generate concentration-response curves (FIG. 16).” for “(Tecan).”
as §3

T1 sequence (P02649 other isoform, or with tags, fused parts or gaps limits assumed): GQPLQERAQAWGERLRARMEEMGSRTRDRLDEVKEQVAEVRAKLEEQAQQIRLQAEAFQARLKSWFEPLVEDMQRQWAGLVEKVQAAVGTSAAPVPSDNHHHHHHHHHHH

B1: 23D5, recombinant IgG2c antibody (antibody, V domains shown)
VH: EVQLVESGGGLVKPGGSLKLSCSASGFTFSRYAMSWVRQSPEKRLEWVAEINSGGSYSFYSDTVTGRFTISRDNAKNTLFLEMSSLRSEDTAIYYCARQLSGTDYYGTDYWGQGTSVTVSS
VL: DVLMTQTPLSLPVSHGDQASISCRSSQSLLYSNGNTYLEWYLQKPGQSPKLLIYKVSNRFSGVPDRFSGSGSGTDFTLKISRVEAEDLGVYYCFQGSHVPYTFGGGTKLEIK
Kd [1]: 5.2 nM | binding result [2]: no binding (tested: 500 ng/ml) | binding result [3]: no binding (tested: 500 ng/ml) | binding result [4]: no binding (tested: 3000 ng/ml) | Kd [5]: 299 nM

B2: 28F2, recombinant IgG2c antibody (antibody, V domains shown)
VH: QIQLVQSGPDLKKPGETVKISCKASGYTFTNYAMHWMKQAPGKALKWMGWINTYTGEPTFADDFKGRFAFSLETSASTAYLQINSLKNEDMATYFCAREGYYDRSHYFDYWGQGTTLTVSS
VL: DVLMTQTPLSLPVSLGDQASISCRSSLSLVHGDGNTYLEWYLQKPGQSPKLLIYKVSNRFSGVPDRFSGSGSGTDFTLKISRVEAEDLGVYYCLQGSHIPFTFGSGTKLEIK
Kd [1]: 9.7 nM | binding result [3]: no binding (tested: 500 ng/ml) | EC50 (read off the curve) [6]: ~0.1 µg/mL | binding result [4]: no binding (tested: 3000 ng/ml) | Kd [5]: 9830 nM

B3: 7C7, recombinant IgG2c antibody (antibody, V domains shown)
VH: EVQLVESGGGLVKPGGSLRLSCAASGFTFSSFAMSWVRQSPERRLEWVAEISRGGGYAFYSDTVTGRFTISRDNARNTLFLEMGSLRSEDTAMYYCSRQLTGTDYYAMDYWGQGTSVTVSS
VL: DVLLTQTPLSLFVSLGDQASISCRSSQSIVYTNGNTYLEWYLQKPGQSPKLLIYKVSNRFSGVPDRFSGSGSGTDFTLKISRVEAEDLGVYYCFQGSQVPYTFGGGTKLELK
Kd [1]: 1.9 nM | binding result [2]: no binding (tested: 500 ng/ml) | binding result [4]: no binding (tested: 3000 ng/ml) | Kd [5]: 417 nM

B4: 17G4, recombinant IgG2c antibody (antibody, V domains shown)
VH: EVQLVESGGGLVKPGGSLKLSCSASGFTFSRYAMSWVRQSPEKRLEWVAEINSGGSYSFYSDTVTGRFTISRDNAKNTLFLEMSSLRSEDTAIYYCARQLTGTDYYGTDYWGQGTSVTVSS
VL: DVLMTQTPLSLPVSHGDQASISCRSSQSLLYSNGNTYLEWYLQKPGQSPKLLIYKVSNRFSGVPDRFSGSGSGTDFTLKISRVEAEDLGVYYCFQGSHVPYTFGGGTKLEIK
Kd [1]: 0.8 nM | binding result [2]: no binding (tested: 500 ng/ml) | binding result [3]: no binding (tested: 500 ng/ml) | binding result [4]: no binding (tested: 3000 ng/ml) | Kd [5]: 141 nM

B5: 4E6, recombinant IgG2c antibody (antibody, V domains shown)
VH: EVQLVESGGDLVKPGGSLKLSCAASGFTFSSYAMSWVRQSPEKRLEWVAEISGSGSRDHYTDSVTGRFTVSRDNAKNTLYLEMSSLRSEDTAIYYCARQLTGTDYYGTDYWGQGTSVTVSS
VL: DVLMTQIPLSLPVSLGDQASISCRSSQSIVYSNGNTYLEWYLQRPGQSPKLLIYKVSNRFSGVPDRFSGSGSGTDFTLKISRVEAEDLGVYYCFQGSHLPYTFGGGTKLEIK
notes: also called recombinant anti-G200 antibody 4E6
Kd [1]: 0.9 nM | binding result [2]: no binding (tested: 500 ng/ml) | binding result [3]: no binding (tested: 500 ng/ml) | binding result [4]: no binding (tested: 3000 ng/ml)

B6: 7B10, recombinant IgG2c antibody (antibody, V domains shown)
VH: AVQLVESGGGLVKPGRSLKLSCAASGFTFSSYAMSWVRQFPDKRLDWVAEISSGGGSTNYLDTVTGRFTISRDNAKNTLYLEMNSLRSEDTAMYYCARQLVGTDYYGTDYWGQGTSVTVSS
VL: DVLMTQTPLSLPVSLGDQASISCRSSQNIVYSNGNTYLEWYLQKPGQSPKLLIYKVSNRFSGVPDRFSGSGSGTDFTLKISRVEAEDLGVYYCFQGSHVPYTFGGGTKLEIK
notes: also called 7610
Kd [1]: 0.8 nM | binding result [2]: no binding (tested: 500 ng/ml) | binding result [3]: no binding (tested: 500 ng/ml) | binding result [4]: no binding (tested: 3000 ng/ml) | Kd [5]: 330 nM
